Results on two molecules are retold here after patent US20220275357A1, “CAPSULE PROTEIN AND MULTIMERIC COMPLEX COMPOSITION THEREOF, AND PHARMACEUTICAL COMPOSITION USING SAME” (UNIVERSITY PUBLIC CORPORATION OSAKA, priority 2019, published 2022).

Common to all, as to type: physicochemical
The nature of data set [1]: Drug releasing capacity: equilibrium dialysis of SN-38-loaded capsule proteins. How it is done: (§1) With a dialysis membrane (Dialysis Membrane, Size 27 Wako molecular weight cut-off: 14,000), each 5 mL of samples was each dialyzed against 150 mL of PBS as an external solution in an incubator at 37° C. for 72 hours. Each of the samples included the solution of SN-38/mutant L-PGDS, SN-38/barrier-attached D-clip mutant or SN-38/targeting barrier-attached D-clip mutant. The samples were prepared to contain 50 uM of SN-38 and 50 uM of the respective capsule proteins.
(§2) At 0, 1, 3, 6, 8, 12, 24, 36, 48, 60, and 72 hours after the start of dialysis, 500 μL of the external solution was sampled, and the same amount of PBS was added instead. SN-38 concentration in the sampled external solutions was measured with a fluorescence spectrophotometer F-7000 (HITACHI; excitation wavelength: 365 nm; measuring wavelength: 380 to 600 nm; and monitoring temperature: 37° C.).
Subsequently, drug release function in response to a reducing environment of the barrier-attached D-clip mutant and the targeting barrier-attached D-clip mutant was evaluated by equilibrium dialysis method in the same manner as described above. PBS and 10 mM DTT/PBS solutions were used as the external solutions for dialysis. The external PBS and 10 mM DTT/PBS solutions simulated oxidizing and reducing environments, respectively.
The horizontal axis represents reaction time (hr), and the vertical axis represents SN-38 concentration (nM). Error bars represent the standard error of the mean, or mean±standard error (n=3). The abbreviations or symbols in the figure have the following meanings: “SN-38/L-PGDS” or “●” represents SN-38/mutant L-PGDS; “SN-38/Capsule” or “▴” represents SN-38/barrier-attached D-clip mutant; and “SN-38/Cap-sCRGDK” or “▪” represents SN-38/targeting barrier-attached D-clip mutant. The symbols “Δ” and “□” with“+10 mM DTT” represent the results of the pharmaceutical compositions, i.e.“SN-38/Capsule” and “SN-38/Cap-sCRGDK” in the presence of 10 mM DTT, respectively. The addition of DTT (Dithiothreitol) allows the solutions to have a strong reducing environment. […]
Background: Equilibrium dialysis compares concentrations on both sides of a semipermeable membrane.

Data set [2] can be described thus: Equilibrium dialysis of dipyridamole-loaded capsule proteins (holding force). To be noted: dipyridamole encapsulated instead of SN-38, external solution PBS, FIG. 10. How it is done:
as §1, §2
Dipyridamole is a poorly water-soluble antianginal drug. The external solution was PBS. Referring to FIG. 10, the horizontal and the left vertical axes represent the reaction time (hr) and dipyridamole concentration (nM), respectively. In addition, the right vertical axis represents the release rate (%), or a value converted from the concentration on the left vertical axis.

Data set [3] in a line: Size measurement by small-angle X-ray scattering (SAXS). To be noted: 25° C.; for Rg: radius of gyration from Guinier region. As for the experimental part: Size of the obtained octameric composition was measured by small-angle X-ray scattering (SAXS). For comparison, size of the mutant L-PGDS was also measured.
SAXS data collection was carried out at BL40B2, a beamline in the SPring-8 synchrotron radiation facility (Sayo-gun, Hyogo). The X-ray wavelength was tuned to 1.000 A (angstrom), the sample-to-detector distance was set to 2.193 m, and the experiments were performed at 25° C. The exposure times for each measurement were 20 to 50 s. Scattering intensity was recorded with PILATUS-2M (RIGAKU, Tokyo) as a detector.
A sample cell with a thickness of 3.0 mm was used to maximize scattering of X-ray. The windows of the cell were made of 0.02 mm thick quartz plates. To avoid systematic errors, the inventor measured the sample (protein) and buffer solutions alternately. 25 μL of a sample solution was placed in the cell for its data collection. The solution was removed from the cell; and the cell was then washed 3 times with a buffer solution before data collection of the next sample solution.
Two-dimensionally recorded scattering patterns of the protein sample and the buffer solutions were transformed to a one-dimensional profile by circular averaging. Contributions to scattering intensities from the solvent were eliminated from the raw data of the sample solutions by subtracting the intensity profile obtained for the buffer solution. Scattering profiles in the small-angle region were analyzed by Guinier's approximation for monodispersive systems: The scattering intensity (I (S,C)) as a function of reciprocal vector (S) and protein concentration (C), is expressed by the forward scattering intensity (I(0,C)) and the radius of gyration Rg(C) (See the following formula (1)).
wherein, 2θ represents the scattering angle relative to the incident beam, and λ represents the X-ray wavelength.
The radius of gyration Rg for each sample solution was calculated from Guinier region in its scattering profile. […]

B1: mutant L-PGDS: human L-PGDS variant SEQ ID NO: 2 with C45A and C147A substitutions, GS added to N-terminus (protein)
chain: GSAPEAQVSVQPNFQQDKFLGRWFSAGLASNSSWLREKKAALSMAKSVVAPATDGGLNLTSTFLRKNQCETRTMLLQPAGSLGSYSYRSPHWGSTYSVSVVETDYDQYALLYSQGSKGPGEDFRMATLYSRTQTPRAELKEKFTAFAKAQGFTEDTIVFLPQTDKCMTEQ
modifications: N-terminal GS added; Enzyme inactivation Mutant
For B1, in data set [1] (10 mM DTT/PBS, reached within shorter reaction time, then almost a plateau, FIG. 9(a)), the “concentration of SN-38 in the external DTT/PBS solution” value stood at 2000 nM. The “dipyridamole concentration in external solution” value in data set [2] was “increased over the reaction time”. This molecule came in with a Dmax in data set [3] of 4.75 nm. Besides, the Rg in data set [3] (listed as Monomer) came out at 1.8 ± 0.04 nm; in data set [3] (listed as monomer (mutant L-PGDS)) it was 1.8±0.04 nm.

B2: barrier-attached mutant (protein)
chain: GSAPEAQVSVQPNFQQDKFLGRWFSAGLASNSSWLREKKAALSMAKSVVAPATDGGLNLTSTFLRKNQCETRTWLLQPAGSLGSYSYRSPHWGSTYSVSVVETDYDQYALLYSQGSKGPGEDFRMATLYSRTQTPRAELKEKFTAFAKAQGFTEDTIVFLPQTDKCMTEQ
modifications: Barrier Mutant
Regarding B2, in data set [1] (10 mM DTT/PBS, at the first 48 hours of dialysis, FIG. 9(b)), the “SN-38 concentration in the external DTT/PBS solution” value is on record as “approximately 2.0 μM”. Besides, the “concentration of SN-38 in the external solution PBS” value in data set [1] (PBS, at the end of the monitoring period, FIG. 9(b)) was at most 1000 nM. Moreover, the “dipyridamole concentration in external solution” value in data set [2] is given as “increased only to the vicinity of the detection limit”.
